The results in this text go back to publication PMC12636033, “Chemical Engineering of Transcription Factors Uncovered Cell-Permeable μMax Modulators”.

Data set [1] concerns the target µMax20 (UniProt P61244). Kind of data set: BLI. The note with it: EMSA: 10 mM MES pH 6.0, 150 mM KCl, 1 mM MgCl2, 10% glycerol, room temperature, 1 uM DNA; BLI: global 1:1 fit, buffer not in material.
Data set [2] concerns the target WT Max (Homo sapiens, UniProt P61244-2 13-93, M65Nle, norleucine written as M; other non-natural residues written as X). Kind of data set: PBM; 50-200 nM protein; PBS, 2% milk, BSA, salmon testes DNA, 0.02% Triton X-100. To be noted: chain copies: 2; label: surface-attached array probe.
Data set [3] has as its target WT Max (synthetic µMax scaffold) (UniProt P61244 22-102). In words: BLI; EMSA: 10 mM MES pH 6.0, 150 mM KCl, 1 mM MgCl2, 10% glycerol, room temperature, 1 uM DNA; BLI: global 1:1 fit, buffer not in material. To be noted: chain copies: 2. For orientation: Biolayer interferometry detects binding as a change in optical thickness at a sensor tip.
Data set [4] addresses µMax H19Y (UniProt P61244 22-102, H28Y). Kind of data set: EMSA; 3 uM protein, 1 uM DNA; EMSA: 10 mM MES pH 6.0, 150 mM KCl, 1 mM MgCl2, 10% glycerol, room temperature, 1 uM DNA; BLI: global 1:1 fit, buffer not in material. To be noted: chain copies: 2. A general note: In EMSA bound probe runs differently from free probe, usually more slowly.

Chain of WT Max (P61244 other isoform, or with tags, fused parts or gaps M65Nle): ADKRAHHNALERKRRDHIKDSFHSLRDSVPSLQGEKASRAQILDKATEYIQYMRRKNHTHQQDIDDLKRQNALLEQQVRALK
Chain of WT Max (synthetic µMax scaffold) (P61244 22-102): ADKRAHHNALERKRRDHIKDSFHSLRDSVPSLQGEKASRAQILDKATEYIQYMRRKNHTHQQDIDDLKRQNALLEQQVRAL
Chain of µMax H19Y (P61244 22-102 H28Y): as the sequence (P61244 22-102) above, with H7Y counted along it
Chain of µMax20 (P61244 whole entry): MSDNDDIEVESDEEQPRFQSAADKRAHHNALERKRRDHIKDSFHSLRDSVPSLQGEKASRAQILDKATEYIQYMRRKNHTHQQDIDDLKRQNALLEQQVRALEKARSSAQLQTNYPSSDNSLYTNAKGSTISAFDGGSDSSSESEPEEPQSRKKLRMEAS

Consider “CCGGCTGACACGTGGTATTAAT (double strand) [E-box DNA probe]”, for which the Kd (usually a measure of binding affinity in units of concentration) in data set [1] was determined as 4.38 nM.

B1: dBr_Jan07_37076 (dsDNA)
DNA 1: AAAACGTTCCGAGCCATTTAGAAGGGGTCACGTGATGTCTGTGTTCCGTTGTCCGTGCTG
DNA 2: CAGCACGGACAACGGAACACAGACATCACGTGACCCCTTCTAAATGGCTCGGAACGTTTT
Regarding B1, the binding signal in data set [2] was 3.31 robust z of log adjusted intensity (ours), mean of two arrays.

B2: dBr_Jan07_40162 (dsDNA)
DNA 1: CCTTGAACCATTAGCACGTGGATATATAAATCTTACGTCTGTGTTCCGTTGTCCGTGCTG
DNA 2: CAGCACGGACAACGGAACACAGACGTAAGATTTATATATCCACGTGCTAATGGTTCAAGG
Take B2: the binding signal in data set [2] was 3.32 robust z of log adjusted intensity (ours), mean of two arrays.

B3: dBr_Jan07_34030 (dsDNA)
DNA 1: GAACGAGGGACCGCTAGGATGCCACGTGATTAAAGTGTCTGTGTTCCGTTGTCCGTGCTG
DNA 2: CAGCACGGACAACGGAACACAGACACTTTAATCACGTGGCATCCTAGCGGTCCCTCGTTC
In the case of B3, the binding signal in data set [2] was 3.45 robust z of log adjusted intensity (ours), mean of two arrays.

B4: E-box DNA probe (dsDNA)
DNA 1: CCGGCTGACACGTGGTATTAAT
DNA 2: ATTAATACCACGTGTCAGCCGG
As for B4, the Kd in data set [3] amounted to 8.1 ± 2.24 nM. Also, the binding result in data set [4] is given as “binds”.

B5: dBr_Jan07_06713 (dsDNA)
DNA 1: AGTAACGGGGTCGCTTGATGGGCTCTTCCGCGTGGAGTCTGTGTTCCGTTGTCCGTGCTG
DNA 2: CAGCACGGACAACGGAACACAGACTCCACGCGGAAGAGCCCATCAAGCGACCCCGTTACT
In the case of B5, in data set [2], the binding signal is 3.79 robust z of log adjusted intensity (ours), mean of two arrays.

B6: dBr_Jan07_33198 (dsDNA)
DNA 1: GCATAAACAAGGCCGCTGTAGCGGTTCGGTGCACGTGTCTGTGTTCCGTTGTCCGTGCTG
DNA 2: CAGCACGGACAACGGAACACAGACACGTGCACCGAACCGCTACAGCGGCCTTGTTTATGC
Take B6: the binding signal in data set [2] is 3.33 robust z of log adjusted intensity (ours), mean of two arrays.
